Test results: patent publication US20100167342

System: GlyExendin-4 (Glycine-extended Exendin-4, Exendin-4 precursor with C-terminal glycine)

Substance	(N-2) impurity of GlyExendin-4 (HPLC of peptide expressed in DAP2-disrupted Pichia clone)	N-terminal clipping of GlyExendin-4 (HPLC and LCMS of peptide expressed in STE13-disrupted clone D2)
Pichia pastoris homolog of Saccharomyces cerevisiae dipeptidyl peptidase DAP2	This continued to show (N-2) impurity	–
Pichia pastoris homolog of Saccharomyces cerevisiae STE13 dipeptidyl peptidase	–	the expressed GlyExendin-4 when checked by HPLC and LCMS was not N-terminally clipped
